Measurements published in the RNAGym collection of RNA variant scans (doi:10.1021/acssynbio.7b00057).

B1: Pistol ribozyme (parent)
chain: GGGUCGUUGUUCCAUAAUCGCGUGGAUAUGGCACGCAAGUUUCUACCGGGCACCGUAAAUGUCCGACUGGAGCCGUUCGGGCGGCUAUAAACAGACCUCAGGCCCGAAGCGUGGCGGCACCUGCCGCCGGUGGUAAAAAAGAUCGGAAGAGCACACGUCU

Variants of: B1
Assay: aptazyme ON/OFF ratio, guanine; higher = stronger switching; co-transcriptional cleavage with and without guanine

Point of comparison: GGGUCGAGACGACAUAAUCGCGUGGAUAUGGCACGCAAGUUUCUACCGGGCACCGUAAAUGUCCGACUGGAGCCGUUCGGGCGGCUAUAAACAGACCUCAGGCCCGAAGCGUGGCGGCACCUGCCGCCGGUGGUAAAAAAGAUCGGAAGAGCACACGUCU [U7A U8G G9A U10C U11G C12A], “aptazyme ON/OFF ratio” value 1.12. Against it:
- GGGUCGAGACGCUAUAAUCGCGUGGAUAUGGCACGCAAGUUUCUACCGGGCACCGUAAAUGUCCGACUGGAGCCGUUCGGGCGGCUAUAAACAGACCUCAGGCCCGAAGCGUGGCGGCACCUGCCGCCGGUGGUAAAAAAGAUCGGAAGAGCACACGUCU [U7A U8G G9A U10C U11G C13U] — higher, 1.25
- GGGUCGAGACGCAAUAAUCGCGUGGAUAUGGCACGCAAGUUUCUACCGGGCACCGUAAAUGUCCGACUGGAGCCGUUCGGGCGGCUAUAAACAGACCUCAGGCCCGAAGCGUGGCGGCACCUGCCGCCGGUGGUAAAAAAGAUCGGAAGAGCACACGUCU [U7A U8G G9A U10C U11G C13A] — higher, 1.19
- GGGUCGAGACGCGAUAAUCGCGUGGAUAUGGCACGCAAGUUUCUACCGGGCACCGUAAAUGUCCGACUGGAGCCGUUCGGGCGGCUAUAAACAGACCUCAGGCCCGAAGCGUGGCGGCACCUGCCGCCGGUGGUAAAAAAGAUCGGAAGAGCACACGUCU [U7A U8G G9A U10C U11G C13G] — higher, 1.3
- GGGUCGAGAGUUGAUAAUCGCGUGGAUAUGGCACGCAAGUUUCUACCGGGCACCGUAAAUGUCCGACUGGAGCCGUUCGGGCGGCUAUAAACAGACCUCAGGCCCGAAGCGUGGCGGCACCUGCCGCCGGUGGUAAAAAAGAUCGGAAGAGCACACGUCU [U7A U8G G9A U10G C12U C13G] — higher, 1.36
- GGGUCGAGAGUUUAUAAUCGCGUGGAUAUGGCACGCAAGUUUCUACCGGGCACCGUAAAUGUCCGACUGGAGCCGUUCGGGCGGCUAUAAACAGACCUCAGGCCCGAAGCGUGGCGGCACCUGCCGCCGGUGGUAAAAAAGAUCGGAAGAGCACACGUCU [U7A U8G G9A U10G C12U C13U] — higher, 1.24
- GGGUCGAGAGUUAAUAAUCGCGUGGAUAUGGCACGCAAGUUUCUACCGGGCACCGUAAAUGUCCGACUGGAGCCGUUCGGGCGGCUAUAAACAGACCUCAGGCCCGAAGCGUGGCGGCACCUGCCGCCGGUGGUAAAAAAGAUCGGAAGAGCACACGUCU [U7A U8G G9A U10G C12U C13A] — higher, 1.43
- GGGUCGAGAGUACAUAAUCGCGUGGAUAUGGCACGCAAGUUUCUACCGGGCACCGUAAAUGUCCGACUGGAGCCGUUCGGGCGGCUAUAAACAGACCUCAGGCCCGAAGCGUGGCGGCACCUGCCGCCGGUGGUAAAAAAGAUCGGAAGAGCACACGUCU [U7A U8G G9A U10G C12A] — higher, 1.24
- GGGUCGAGAGUUCAUAAUCGCGUGGAUAUGGCACGCAAGUUUCUACCGGGCACCGUAAAUGUCCGACUGGAGCCGUUCGGGCGGCUAUAAACAGACCUCAGGCCCGAAGCGUGGCGGCACCUGCCGCCGGUGGUAAAAAAGAUCGGAAGAGCACACGUCU [U7A U8G G9A U10G C12U] — higher, 1.21
- GGGUCGAGAGUGCAUAAUCGCGUGGAUAUGGCACGCAAGUUUCUACCGGGCACCGUAAAUGUCCGACUGGAGCCGUUCGGGCGGCUAUAAACAGACCUCAGGCCCGAAGCGUGGCGGCACCUGCCGCCGGUGGUAAAAAAGAUCGGAAGAGCACACGUCU [U7A U8G G9A U10G C12G] — higher, 1.36
- GGGUCGAGACCCGAUAAUCGCGUGGAUAUGGCACGCAAGUUUCUACCGGGCACCGUAAAUGUCCGACUGGAGCCGUUCGGGCGGCUAUAAACAGACCUCAGGCCCGAAGCGUGGCGGCACCUGCCGCCGGUGGUAAAAAAGAUCGGAAGAGCACACGUCU [U7A U8G G9A U10C U11C C13G] — lower, 1.03
- GGGUCGAGACCCUAUAAUCGCGUGGAUAUGGCACGCAAGUUUCUACCGGGCACCGUAAAUGUCCGACUGGAGCCGUUCGGGCGGCUAUAAACAGACCUCAGGCCCGAAGCGUGGCGGCACCUGCCGCCGGUGGUAAAAAAGAUCGGAAGAGCACACGUCU [U7A U8G G9A U10C U11C C13U] — lower, 1.03
- GGGUCGAGACCCAAUAAUCGCGUGGAUAUGGCACGCAAGUUUCUACCGGGCACCGUAAAUGUCCGACUGGAGCCGUUCGGGCGGCUAUAAACAGACCUCAGGCCCGAAGCGUGGCGGCACCUGCCGCCGGUGGUAAAAAAGAUCGGAAGAGCACACGUCU [U7A U8G G9A U10C U11C C13A] — lower, 1.07
- GGGUCGAGACGCCAUAAUCGCGUGGAUAUGGCACGCAAGUUUCUACCGGGCACCGUAAAUGUCCGACUGGAGCCGUUCGGGCGGCUAUAAACAGACCUCAGGCCCGAAGCGUGGCGGCACCUGCCGCCGGUGGUAAAAAAGAUCGGAAGAGCACACGUCU [U7A U8G G9A U10C U11G] — higher, 1.74
- GGGUCGAGACGGUAUAAUCGCGUGGAUAUGGCACGCAAGUUUCUACCGGGCACCGUAAAUGUCCGACUGGAGCCGUUCGGGCGGCUAUAAACAGACCUCAGGCCCGAAGCGUGGCGGCACCUGCCGCCGGUGGUAAAAAAGAUCGGAAGAGCACACGUCU [U7A U8G G9A U10C U11G C12G C13U] — lower, 1.1
- GGGUCGAGACGGAAUAAUCGCGUGGAUAUGGCACGCAAGUUUCUACCGGGCACCGUAAAUGUCCGACUGGAGCCGUUCGGGCGGCUAUAAACAGACCUCAGGCCCGAAGCGUGGCGGCACCUGCCGCCGGUGGUAAAAAAGAUCGGAAGAGCACACGUCU [U7A U8G G9A U10C U11G C12G C13A] — higher, 1.22
- GGGUCGAGACGGGAUAAUCGCGUGGAUAUGGCACGCAAGUUUCUACCGGGCACCGUAAAUGUCCGACUGGAGCCGUUCGGGCGGCUAUAAACAGACCUCAGGCCCGAAGCGUGGCGGCACCUGCCGCCGGUGGUAAAAAAGAUCGGAAGAGCACACGUCU [U7A U8G G9A U10C U11G C12G C13G] — higher, 1.16
- GGGUCGAGAGUCCAUAAUCGCGUGGAUAUGGCACGCAAGUUUCUACCGGGCACCGUAAAUGUCCGACUGGAGCCGUUCGGGCGGCUAUAAACAGACCUCAGGCCCGAAGCGUGGCGGCACCUGCCGCCGGUGGUAAAAAAGAUCGGAAGAGCACACGUCU [U7A U8G G9A U10G] — higher, 1.43
- GGGUCGAGAGUAGAUAAUCGCGUGGAUAUGGCACGCAAGUUUCUACCGGGCACCGUAAAUGUCCGACUGGAGCCGUUCGGGCGGCUAUAAACAGACCUCAGGCCCGAAGCGUGGCGGCACCUGCCGCCGGUGGUAAAAAAGAUCGGAAGAGCACACGUCU [U7A U8G G9A U10G C12A C13G] — higher, 1.13
- GGGUCGAGAGUAAAUAAUCGCGUGGAUAUGGCACGCAAGUUUCUACCGGGCACCGUAAAUGUCCGACUGGAGCCGUUCGGGCGGCUAUAAACAGACCUCAGGCCCGAAGCGUGGCGGCACCUGCCGCCGGUGGUAAAAAAGAUCGGAAGAGCACACGUCU [U7A U8G G9A U10G C12A C13A] — higher, 1.39
- GGGUCGAGAGUAUAUAAUCGCGUGGAUAUGGCACGCAAGUUUCUACCGGGCACCGUAAAUGUCCGACUGGAGCCGUUCGGGCGGCUAUAAACAGACCUCAGGCCCGAAGCGUGGCGGCACCUGCCGCCGGUGGUAAAAAAGAUCGGAAGAGCACACGUCU [U7A U8G G9A U10G C12A C13U] — higher, 1.31
- GGGUCGAGACGGCAUAAUCGCGUGGAUAUGGCACGCAAGUUUCUACCGGGCACCGUAAAUGUCCGACUGGAGCCGUUCGGGCGGCUAUAAACAGACCUCAGGCCCGAAGCGUGGCGGCACCUGCCGCCGGUGGUAAAAAAGAUCGGAAGAGCACACGUCU [U7A U8G G9A U10C U11G C12G] — higher, 1.33
- GGGUCGAGACGUCAUAAUCGCGUGGAUAUGGCACGCAAGUUUCUACCGGGCACCGUAAAUGUCCGACUGGAGCCGUUCGGGCGGCUAUAAACAGACCUCAGGCCCGAAGCGUGGCGGCACCUGCCGCCGGUGGUAAAAAAGAUCGGAAGAGCACACGUCU [U7A U8G G9A U10C U11G C12U] — higher, 1.26
- GGGUCGAGAGACCAUAAUCGCGUGGAUAUGGCACGCAAGUUUCUACCGGGCACCGUAAAUGUCCGACUGGAGCCGUUCGGGCGGCUAUAAACAGACCUCAGGCCCGAAGCGUGGCGGCACCUGCCGCCGGUGGUAAAAAAGAUCGGAAGAGCACACGUCU [U7A U8G G9A U10G U11A] — lower, 1.06
- GGGUCGAGAGUGUAUAAUCGCGUGGAUAUGGCACGCAAGUUUCUACCGGGCACCGUAAAUGUCCGACUGGAGCCGUUCGGGCGGCUAUAAACAGACCUCAGGCCCGAAGCGUGGCGGCACCUGCCGCCGGUGGUAAAAAAGAUCGGAAGAGCACACGUCU [U7A U8G G9A U10G C12G C13U] — higher, 1.33
- GGGUCGAGAGUGGAUAAUCGCGUGGAUAUGGCACGCAAGUUUCUACCGGGCACCGUAAAUGUCCGACUGGAGCCGUUCGGGCGGCUAUAAACAGACCUCAGGCCCGAAGCGUGGCGGCACCUGCCGCCGGUGGUAAAAAAGAUCGGAAGAGCACACGUCU [U7A U8G G9A U10G C12G C13G] — higher, 1.17
- GGGUCGAGAGUGAAUAAUCGCGUGGAUAUGGCACGCAAGUUUCUACCGGGCACCGUAAAUGUCCGACUGGAGCCGUUCGGGCGGCUAUAAACAGACCUCAGGCCCGAAGCGUGGCGGCACCUGCCGCCGGUGGUAAAAAAGAUCGGAAGAGCACACGUCU [U7A U8G G9A U10G C12G C13A] — higher, 1.5
- GGGUCGAGACGAUAUAAUCGCGUGGAUAUGGCACGCAAGUUUCUACCGGGCACCGUAAAUGUCCGACUGGAGCCGUUCGGGCGGCUAUAAACAGACCUCAGGCCCGAAGCGUGGCGGCACCUGCCGCCGGUGGUAAAAAAGAUCGGAAGAGCACACGUCU [U7A U8G G9A U10C U11G C12A C13U] — higher, 1.28
- GGGUCGAGACGAAAUAAUCGCGUGGAUAUGGCACGCAAGUUUCUACCGGGCACCGUAAAUGUCCGACUGGAGCCGUUCGGGCGGCUAUAAACAGACCUCAGGCCCGAAGCGUGGCGGCACCUGCCGCCGGUGGUAAAAAAGAUCGGAAGAGCACACGUCU [U7A U8G G9A U10C U11G C12A C13A] — higher, 1.18
- GGGUCGAGACGAGAUAAUCGCGUGGAUAUGGCACGCAAGUUUCUACCGGGCACCGUAAAUGUCCGACUGGAGCCGUUCGGGCGGCUAUAAACAGACCUCAGGCCCGAAGCGUGGCGGCACCUGCCGCCGGUGGUAAAAAAGAUCGGAAGAGCACACGUCU [U7A U8G G9A U10C U11G C12A C13G] — higher, 1.19
- GGGUCGAGAGUCUAUAAUCGCGUGGAUAUGGCACGCAAGUUUCUACCGGGCACCGUAAAUGUCCGACUGGAGCCGUUCGGGCGGCUAUAAACAGACCUCAGGCCCGAAGCGUGGCGGCACCUGCCGCCGGUGGUAAAAAAGAUCGGAAGAGCACACGUCU [U7A U8G G9A U10G C13U] — higher, 1.31
- GGGUCGAGAGUCGAUAAUCGCGUGGAUAUGGCACGCAAGUUUCUACCGGGCACCGUAAAUGUCCGACUGGAGCCGUUCGGGCGGCUAUAAACAGACCUCAGGCCCGAAGCGUGGCGGCACCUGCCGCCGGUGGUAAAAAAGAUCGGAAGAGCACACGUCU [U7A U8G G9A U10G C13G] — lower, 1.09
- GGGUCGAGAGUCAAUAAUCGCGUGGAUAUGGCACGCAAGUUUCUACCGGGCACCGUAAAUGUCCGACUGGAGCCGUUCGGGCGGCUAUAAACAGACCUCAGGCCCGAAGCGUGGCGGCACCUGCCGCCGGUGGUAAAAAAGAUCGGAAGAGCACACGUCU [U7A U8G G9A U10G C13A] — higher, 1.18
- GGGUCGAGACGUUAUAAUCGCGUGGAUAUGGCACGCAAGUUUCUACCGGGCACCGUAAAUGUCCGACUGGAGCCGUUCGGGCGGCUAUAAACAGACCUCAGGCCCGAAGCGUGGCGGCACCUGCCGCCGGUGGUAAAAAAGAUCGGAAGAGCACACGUCU [U7A U8G G9A U10C U11G C12U C13U] — higher, 1.23
- GGGUCGAGACGUGAUAAUCGCGUGGAUAUGGCACGCAAGUUUCUACCGGGCACCGUAAAUGUCCGACUGGAGCCGUUCGGGCGGCUAUAAACAGACCUCAGGCCCGAAGCGUGGCGGCACCUGCCGCCGGUGGUAAAAAAGAUCGGAAGAGCACACGUCU [U7A U8G G9A U10C U11G C12U C13G] — higher, 1.33
- GGGUCGAGACGUAAUAAUCGCGUGGAUAUGGCACGCAAGUUUCUACCGGGCACCGUAAAUGUCCGACUGGAGCCGUUCGGGCGGCUAUAAACAGACCUCAGGCCCGAAGCGUGGCGGCACCUGCCGCCGGUGGUAAAAAAGAUCGGAAGAGCACACGUCU [U7A U8G G9A U10C U11G C12U C13A] — higher, 1.21
